Reference: patent publication US20110195900A1, “PEPTIDIC PTH RECEPTOR AGONISTS” (FERRING B.V., priority 2008, published 2011)
Non-standard residues stand in square brackets, D forms with d. Residues, ends and D or L forms follow the SMILES beside them. No end group written: not given here. 1Nal = N[C@@H](Cc1cccc2ccccc12)C(=O)O; 2Nal = N[C@@H](Cc1ccc2ccccc2c1)C(=O)O; β3hI = CC[C@H](C)[C@H](N)CC(=O)O; β3hR = N=C(N)NCCC[C@H](N)CC(=O)O; Nle = CCCC[C@H](N)C(=O)O; β3hA = C[C@H](N)CC(=O)O; Aib = CC(C)(N)C(=O)O; βAla = NCCC(=O)O

T1: human PTH-1 receptor (Homo sapiens, UniProt Q03431)
T1 construct: expressed in transfected cells; host or cells: HEK-293
T1 sequence (Q03431 27-593): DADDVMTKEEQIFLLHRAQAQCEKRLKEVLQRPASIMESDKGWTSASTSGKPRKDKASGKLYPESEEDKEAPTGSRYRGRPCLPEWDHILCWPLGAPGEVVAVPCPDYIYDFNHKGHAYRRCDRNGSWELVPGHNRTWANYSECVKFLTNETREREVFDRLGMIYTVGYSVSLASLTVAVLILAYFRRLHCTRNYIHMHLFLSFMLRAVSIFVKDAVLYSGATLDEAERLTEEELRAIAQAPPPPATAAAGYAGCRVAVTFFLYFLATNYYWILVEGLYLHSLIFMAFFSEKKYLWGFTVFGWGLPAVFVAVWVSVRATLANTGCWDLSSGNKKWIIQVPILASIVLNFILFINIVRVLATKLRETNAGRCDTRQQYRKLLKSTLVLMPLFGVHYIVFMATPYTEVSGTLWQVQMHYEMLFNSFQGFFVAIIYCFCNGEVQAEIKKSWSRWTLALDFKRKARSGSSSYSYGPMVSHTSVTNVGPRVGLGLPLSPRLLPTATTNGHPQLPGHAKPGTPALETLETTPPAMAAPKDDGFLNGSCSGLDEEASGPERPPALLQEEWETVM


How the values were obtained:
human PTH-1 receptor = biological target: T1, human PTH-1 receptor; assay: Reporter gene assay (CRE-luciferase) for agonist activity in transiently transfected HEK-293 cells; assay type: cell-based; settings: Table 4 comparison data
Method in brief: (§1)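 Selectivity came from luciferase transcriptional reporter assays expressing human PTH-2 receptor. PTH-1 agonism used transiently transfected HEK-293 cells carrying SV40-promoter receptor and cAMP-responsive-element luciferase; 4-5 h compound exposure, lysis, luminescence, non-linear-regression EC50/efficacy; ≥3 independent runs, PTH (1-34) control each.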

human PTH-2 receptor = biological target: T2, human PTH-2 receptor (Homo sapiens, UniProt P49190); assay: Luciferase-based transcriptional reporter gene assay for selectivity; assay type: cell-based; settings: Table 4 comparison data; luciferase reporter gene assay; read-out: hPTHR-2 EC50
T2 construct: expressed in transfected cells
Method in brief: as §1

[1] = biological target: human parathyroid hormone receptor 1 (human, UniProt Q03431); assay: cell-based or functional assay
[2] = biological target: human parathyroid hormone receptor 2 (human, UniProt P49190); assay: cell-based or functional assay

T2 sequence (P49190 25-550): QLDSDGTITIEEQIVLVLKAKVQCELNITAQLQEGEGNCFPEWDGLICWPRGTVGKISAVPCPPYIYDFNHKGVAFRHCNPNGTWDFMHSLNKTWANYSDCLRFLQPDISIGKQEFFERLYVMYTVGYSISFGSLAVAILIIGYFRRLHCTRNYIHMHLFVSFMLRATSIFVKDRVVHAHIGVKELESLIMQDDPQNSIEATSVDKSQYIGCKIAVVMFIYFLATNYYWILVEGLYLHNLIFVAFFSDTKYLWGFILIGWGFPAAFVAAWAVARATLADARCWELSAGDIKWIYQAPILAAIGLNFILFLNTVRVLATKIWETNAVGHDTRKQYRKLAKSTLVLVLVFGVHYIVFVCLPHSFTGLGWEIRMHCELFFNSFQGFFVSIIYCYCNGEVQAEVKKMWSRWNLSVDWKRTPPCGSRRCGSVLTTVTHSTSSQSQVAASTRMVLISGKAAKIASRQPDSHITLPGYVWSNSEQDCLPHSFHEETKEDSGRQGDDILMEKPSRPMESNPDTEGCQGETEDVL

Row | EC50 (human PTH-1 receptor; HEK-293 cells, CRE-luciferase, read-out: hPTHR-1 EC50) | Selectivity hPTHR-2/hPTHR-1 (human PTH-1 receptor; ratio of EC50 values) | EC50 (human PTH-2 receptor) | hPTHR-1 EC50 (nM), CRE-luciferase reporter gene assay [1] | hPTHR-2 EC50 (nM), luciferase reporter gene assay [2] | Molecule
1 | 0.22 nM | 213 | 46 nM | – | – | CCCC[C@H](NC(=O)CCNC(=O)[C@H](CC(N)=O)NC(=O)[C@H](CC(C)C)NC(=O)[C@H](Cc1c[nH]cn1)NC(=O)[C@H](CCCCN)NC(=O)CNC(=O)[C@H](CC(C)C)NC(=O)[C@H](CC(N)=O)NC(=O)[C@H](Cc1c[nH]cn1)NC(=O)[C@H](CCCC)NC(=O)[C@H](CC(C)C)NC(=O)[C@H](CCC(N)=O)NC(=O)[C@@H](NC(=O)[C@H](CCC(=O)O)NC(=O)[C@H](CO)NC(=O)[C@@H](NC(=O)C(C)(C)N)C(C)C)[C@@H](C)CC)C(=O)N[C@@H](CCC(=O)O)C(=O)N[C@@H](CCCNC(=N)N)C(=O)N[C@H](C(=O)N[C@@H](CCC(=O)O)C(=O)N[C@@H](Cc1cccc2ccccc12)C(=O)N[C@@H](CC(C)C)C(=O)N[C@@H](CCCNC(=N)N)C(=O)N[C@@H](CCCCN)C(=O)N[C@@H](CCCCN)C(=O)N[C@@H](CC(C)C)C(=O)N[C@@H](CCC(N)=O)C(=O)N[C@@H](CC(=O)O)C(=O)N[C@H](C(=O)N[C@@H](Cc1c[nH]cn1)C(=O)N[C@@H](CC(N)=O)C(=O)N[C@@H](Cc1ccccc1)C(N)=O)C(C)C)C(C)C [SEQ ID NO: 55, [Aib^1, Nle^8,18, β-Ala^17,1-Nal^23] hPTH (1-34)-NH2] (H-[Aib]VSEIQL[Nle]HNLGKHLN[βAla][Nle]ERVE[1Nal]LRKKLQDVHNF-NH2)
2 | – | – | – | 0.24 nM | 36 nM | SVSEIQL[Nle]HNLGKHLNS[β3hR]ERVE[2Nal]LRKKLQDVHNF-NH2 (N-terminus assumed; SMILES CCCC[C@H](NC(=O)[C@H](CC(C)C)NC(=O)[C@H](CCC(N)=O)NC(=O)[C@@H](NC(=O)[C@H](CCC(=O)O)NC(=O)[C@H](CO)NC(=O)[C@@H](NC(=O)[C@@H](N)CO)C(C)C)[C@@H](C)CC)C(=O)N[C@@H](Cc1c[nH]cn1)C(=O)N[C@@H](CC(N)=O)C(=O)N[C@@H](CC(C)C)C(=O)NCC(=O)N[C@@H](CCCCN)C(=O)N[C@@H](Cc1c[nH]cn1)C(=O)N[C@@H](CC(C)C)C(=O)N[C@@H](CC(N)=O)C(=O)N[C@@H](CO)C(=O)N[C@@H](CCCNC(=N)N)CC(=O)N[C@@H](CCC(=O)O)C(=O)N[C@@H](CCCNC(=N)N)C(=O)N[C@H](C(=O)N[C@@H](CCC(=O)O)C(=O)N[C@@H](Cc1ccc2ccccc2c1)C(=O)N[C@@H](CC(C)C)C(=O)N[C@@H](CCCNC(=N)N)C(=O)N[C@@H](CCCCN)C(=O)N[C@@H](CCCCN)C(=O)N[C@@H](CC(C)C)C(=O)N[C@@H](CCC(N)=O)C(=O)N[C@@H](CC(=O)O)C(=O)N[C@H](C(=O)N[C@@H](Cc1c[nH]cn1)C(=O)N[C@@H](CC(N)=O)C(=O)N[C@@H](Cc1ccccc1)C(N)=O)C(C)C)C(C)C) [[Nle^8, β-hArg^18, 2-Nal^23] hPTH (1-34)-NH2]
3 | – | – | – | 0.25 nM | 42 nM | SVSEIQL[Nle]HNLGKHLNS[β3hI]ERVE[2Nal]LRKKLQDVHNF-NH2 (N-terminus assumed; SMILES CCCC[C@H](NC(=O)[C@H](CC(C)C)NC(=O)[C@H](CCC(N)=O)NC(=O)[C@@H](NC(=O)[C@H](CCC(=O)O)NC(=O)[C@H](CO)NC(=O)[C@@H](NC(=O)[C@@H](N)CO)C(C)C)[C@@H](C)CC)C(=O)N[C@@H](Cc1c[nH]cn1)C(=O)N[C@@H](CC(N)=O)C(=O)N[C@@H](CC(C)C)C(=O)NCC(=O)N[C@@H](CCCCN)C(=O)N[C@@H](Cc1c[nH]cn1)C(=O)N[C@@H](CC(C)C)C(=O)N[C@@H](CC(N)=O)C(=O)N[C@@H](CO)C(=O)N[C@H](CC(=O)N[C@@H](CCC(=O)O)C(=O)N[C@@H](CCCNC(=N)N)C(=O)N[C@H](C(=O)N[C@@H](CCC(=O)O)C(=O)N[C@@H](Cc1ccc2ccccc2c1)C(=O)N[C@@H](CC(C)C)C(=O)N[C@@H](CCCNC(=N)N)C(=O)N[C@@H](CCCCN)C(=O)N[C@@H](CCCCN)C(=O)N[C@@H](CC(C)C)C(=O)N[C@@H](CCC(N)=O)C(=O)N[C@@H](CC(=O)O)C(=O)N[C@H](C(=O)N[C@@H](Cc1c[nH]cn1)C(=O)N[C@@H](CC(N)=O)C(=O)N[C@@H](Cc1ccccc1)C(N)=O)C(C)C)C(C)C)[C@@H](C)CC) [[Nle^8, β-hIle^18, 2-Nal^23] hPTH (1-34)-NH2]
4 | – | – | – | 0.34 nM | 73 nM | SVSEIQL[Nle]HNLGKHLNS[β3hA]ERVE[2Nal]LRKKLQDVHNF-NH2 (N-terminus assumed; SMILES CCCC[C@H](NC(=O)[C@H](CC(C)C)NC(=O)[C@H](CCC(N)=O)NC(=O)[C@@H](NC(=O)[C@H](CCC(=O)O)NC(=O)[C@H](CO)NC(=O)[C@@H](NC(=O)[C@@H](N)CO)C(C)C)[C@@H](C)CC)C(=O)N[C@@H](Cc1c[nH]cn1)C(=O)N[C@@H](CC(N)=O)C(=O)N[C@@H](CC(C)C)C(=O)NCC(=O)N[C@@H](CCCCN)C(=O)N[C@@H](Cc1c[nH]cn1)C(=O)N[C@@H](CC(C)C)C(=O)N[C@@H](CC(N)=O)C(=O)N[C@@H](CO)C(=O)N[C@@H](C)CC(=O)N[C@@H](CCC(=O)O)C(=O)N[C@@H](CCCNC(=N)N)C(=O)N[C@H](C(=O)N[C@@H](CCC(=O)O)C(=O)N[C@@H](Cc1ccc2ccccc2c1)C(=O)N[C@@H](CC(C)C)C(=O)N[C@@H](CCCNC(=N)N)C(=O)N[C@@H](CCCCN)C(=O)N[C@@H](CCCCN)C(=O)N[C@@H](CC(C)C)C(=O)N[C@@H](CCC(N)=O)C(=O)N[C@@H](CC(=O)O)C(=O)N[C@H](C(=O)N[C@@H](Cc1c[nH]cn1)C(=O)N[C@@H](CC(N)=O)C(=O)N[C@@H](Cc1ccccc1)C(N)=O)C(C)C)C(C)C) [[Nle^8, β-hAla^18, 2-Nal^23] hPTH (1-34)-NH2]
5 | – | – | – | 0.22 nM | 46 nM | [Aib]VSEIQL[Nle]HNLGKHLN[βAla][Nle]ERVE[1Nal]LRKKLQDVHNF-NH2 (N-terminus assumed; SMILES CCCC[C@H](NC(=O)CCNC(=O)[C@H](CC(N)=O)NC(=O)[C@H](CC(C)C)NC(=O)[C@H](Cc1c[nH]cn1)NC(=O)[C@H](CCCCN)NC(=O)CNC(=O)[C@H](CC(C)C)NC(=O)[C@H](CC(N)=O)NC(=O)[C@H](Cc1c[nH]cn1)NC(=O)[C@H](CCCC)NC(=O)[C@H](CC(C)C)NC(=O)[C@H](CCC(N)=O)NC(=O)[C@@H](NC(=O)[C@H](CCC(=O)O)NC(=O)[C@H](CO)NC(=O)[C@@H](NC(=O)C(C)(C)N)C(C)C)[C@@H](C)CC)C(=O)N[C@@H](CCC(=O)O)C(=O)N[C@@H](CCCNC(=N)N)C(=O)N[C@H](C(=O)N[C@@H](CCC(=O)O)C(=O)N[C@@H](Cc1cccc2ccccc12)C(=O)N[C@@H](CC(C)C)C(=O)N[C@@H](CCCNC(=N)N)C(=O)N[C@@H](CCCCN)C(=O)N[C@@H](CCCCN)C(=O)N[C@@H](CC(C)C)C(=O)N[C@@H](CCC(N)=O)C(=O)N[C@@H](CC(=O)O)C(=O)N[C@H](C(=O)N[C@@H](Cc1c[nH]cn1)C(=O)N[C@@H](CC(N)=O)C(=O)N[C@@H](Cc1ccccc1)C(N)=O)C(C)C)C(C)C) [[Aib^1, Nle^8,18, β-Ala^17, 1-Nal^23] hPTH (1-34)-NH2]
